# T1: GST-MOB1 (GST fusion of MOB1, from pGEX-HA-MOB1), Q9H8S9
# T1 chain: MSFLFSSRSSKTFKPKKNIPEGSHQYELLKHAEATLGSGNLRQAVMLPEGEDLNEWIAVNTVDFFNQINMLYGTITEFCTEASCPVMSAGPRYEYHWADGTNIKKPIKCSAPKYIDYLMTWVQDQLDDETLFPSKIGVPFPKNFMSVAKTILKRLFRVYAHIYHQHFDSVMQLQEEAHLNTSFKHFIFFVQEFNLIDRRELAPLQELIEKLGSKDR
# Assays:
# [1] = molecular target: T1, GST-MOB1 (GST fusion of MOB1, from …)
# [2] = molecular target: YAP1 Recombinant Protein (Abnova H00010413-P01), P46937
protein,measurement,setting,value
"active recombinant human FAK (catalytic domain, FAK-C) (protein) ETDDYAEIIDEEDTYTMPSTRDYEIQRERIELGRCIGEGQFGDVHQGIYMSPENPALAVAIKTCKNCTSDSVREKFLQEALTMRQFDHPHIVKLIGVITENPVWIIMELCTLGELRSFLQVRKYSLDLASLILYAYQLSTALAYLESKRFVHRDIAARNVLVSSNDCVKLGDFGLSRYMEDSTYYKASKGKLPIKWMAPESINFRRFTSASDVWMFGVCMWEILMHGVKPFQGVKNNDVIGRIENGERLPMPPNCPPTLYSLMTKCWAYDPSRRPRFTELKAQLSTILEEEKAQQEERMRMESRRQ",Y26 phosphorylation of GST-MOB1 in an in vitro kinase reaction (immunoblot),[1],FAK was able to directly phosphorylate MOB1 on its Y26 by in vitro kinase reaction using purified recombinant proteins
same,YAP Y357 phosphorylation in an in vitro kinase reaction (immunoblot),[2],FAK was able to phosphorylate YAP at Y357 in vitro

# — patent publication US20200323863
